Substitutions are numbered along the chain they refer to. One block for each binder: values may come before it. Side-chain parts run from the residue outwards. [ ]: non-standard residue; d: D form.
Columns and labels:
Experiment in all cases: cell-based or functional assay
[1] = biological target: human GLP-1 receptor (human) (UniProt P43220)
[2] = biological target: recombinant human type 2 Formyl peptide receptor (FPR2) (human) (UniProt P25090)
[3] = biological target: human GLP-2 receptor (human) (UniProt O95838)
Sequence of human GLP-2 receptor (human) (O95838 whole entry): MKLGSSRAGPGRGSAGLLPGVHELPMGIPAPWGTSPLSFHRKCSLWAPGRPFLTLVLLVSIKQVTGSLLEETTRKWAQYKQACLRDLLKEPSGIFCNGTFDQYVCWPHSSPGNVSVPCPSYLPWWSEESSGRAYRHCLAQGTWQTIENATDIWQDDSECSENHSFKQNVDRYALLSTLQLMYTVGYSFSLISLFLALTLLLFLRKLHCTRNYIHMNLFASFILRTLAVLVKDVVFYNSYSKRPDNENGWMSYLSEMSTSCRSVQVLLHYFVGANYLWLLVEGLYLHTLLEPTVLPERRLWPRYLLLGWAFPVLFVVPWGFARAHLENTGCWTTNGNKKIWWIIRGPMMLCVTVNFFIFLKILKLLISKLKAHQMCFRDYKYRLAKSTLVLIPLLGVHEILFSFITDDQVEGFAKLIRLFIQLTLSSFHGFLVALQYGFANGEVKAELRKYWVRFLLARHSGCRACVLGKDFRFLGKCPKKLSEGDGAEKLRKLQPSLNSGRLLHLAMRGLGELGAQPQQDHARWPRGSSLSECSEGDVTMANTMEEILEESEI

Sequence of human GLP-1 receptor (human) (P43220 24-463): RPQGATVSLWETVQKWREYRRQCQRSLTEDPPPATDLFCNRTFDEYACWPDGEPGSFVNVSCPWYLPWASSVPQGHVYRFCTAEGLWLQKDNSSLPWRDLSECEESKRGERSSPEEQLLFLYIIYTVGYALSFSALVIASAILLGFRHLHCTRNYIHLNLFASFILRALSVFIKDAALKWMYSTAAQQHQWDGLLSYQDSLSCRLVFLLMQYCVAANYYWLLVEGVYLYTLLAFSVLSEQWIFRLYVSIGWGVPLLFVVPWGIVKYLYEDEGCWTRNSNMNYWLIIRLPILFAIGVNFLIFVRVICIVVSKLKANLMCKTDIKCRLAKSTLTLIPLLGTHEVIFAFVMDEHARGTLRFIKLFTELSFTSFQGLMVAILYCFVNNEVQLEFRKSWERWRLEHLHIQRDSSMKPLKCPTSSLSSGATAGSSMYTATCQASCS
Sequence of recombinant human type 2 Formyl peptide receptor (FPR2) (human) (P25090 whole entry): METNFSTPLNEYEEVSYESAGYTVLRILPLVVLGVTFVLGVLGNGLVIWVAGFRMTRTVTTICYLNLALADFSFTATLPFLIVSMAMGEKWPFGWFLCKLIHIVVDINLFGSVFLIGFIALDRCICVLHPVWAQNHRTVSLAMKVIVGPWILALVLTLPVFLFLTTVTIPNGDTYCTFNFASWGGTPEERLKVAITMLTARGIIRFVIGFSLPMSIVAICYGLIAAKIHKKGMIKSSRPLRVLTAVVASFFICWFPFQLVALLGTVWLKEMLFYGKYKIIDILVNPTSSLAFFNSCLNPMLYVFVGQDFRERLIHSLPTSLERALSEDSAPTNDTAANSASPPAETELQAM

- agonist activity, % of the max response of Trp-Lys-Tyr-Met-Val-Met (SEQ ID NO: 114) [2]: 33%
Binder: Ac-AMVSEFLKQ[dA]WFIENEEQEYVQTVKKK([Lys-Ac])-NH2 [Analogue 6 (Example 4, BAP-modified AnxA1 N-terminal fragment): …]

- EC50 (nM), cAMP production (HTRF) [3]: 5.9 nM
- Max efficacy in % of control peptide (cAMP production, HTRF) (% of control peptide) [3]: 102
B2: Analogue 4 (Example 4, BAP-modified GLP-2 analogue): … (peptide)
peptide: HGDGSFSDEMNTILDNLAARDFINWLIQTKITDK
modifications: N-terminal acetyl; Lys-Lys-Ac attached to the epsilon-amino group of the C-terminal Lys34; C-terminal amide

- EC50 (nM), cAMP production (HTRF) [3]: 8.9 nM
- Max efficacy in % of control peptide (cAMP production, HTRF) (% of control peptide) [3]: 95.1
B3: Analogue 5 (Example 4, BAP-modified GLP-2 analogue): … (peptide)
peptide: B2 peptide with G2A
modifications: N-terminal acetyl; D-Ala at position 2; Lys-Lys-Ac attached to the epsilon-amino group of the C-terminal Lys34; C-terminal amide

The remaining lines, values behind:

Binder: Ac-HGEGTFTSDVSSYLEGQAAKEFIAWLVKGRGK([Lys-Lys-Ac])-NH2 [Analogue 2 (Example 4, BAP-modified GLP-1 analogue): …]
- EC50 (nM), cAMP production (HTRF) [1]: 0.04 nM
- Max efficacy in % of control peptide (cAMP production, HTRF) (% of control peptide) [1]: 102

B1: Analogue 3 (Example 4, BAP-modified GLP-2 analogue): … (peptide)
peptide: B2 peptide with G2A
modifications: N-terminal acetyl; Lys-Lys-Ac attached to the epsilon-amino group of the C-terminal Lys34; C-terminal amide
- EC50 (nM), cAMP production (HTRF) [3]: 3.4 nM
- Max efficacy in % of control peptide (cAMP production, HTRF) (% of control peptide) [3]: 101
